# Columns and labels:
# [1] = tested on: PI(3)P liposomes; assay: Yeast proteome chip probed with PI(3)P liposomes; conditions: liposome binding signal on yeast proteome chip, Cy3-streptavidin detection
# From the text: To identify PI-binding proteins in yeast, liposomes were used as probes because the liposome provides the most relevant physiological condition to assay the interactors. Six types of liposomes were used. Each contains phosphatidylcholine (“PC”) with 1% (w/w) N-(biotinoyl)-1,2-dihexadecanoyl-sn-glycero-3-phosphoethanolamine, triethylammonium salt (biotin DHPE). The biotinylated lipid serves as a label that can be detected by Cy3-streptavidin (21). In addition to PC, the five other liposomes contain either 5% (w/w) PI(3)P, PI(4)P, PI(3,4)P2, PI(4,5)P2, or PI(3,4,5)P3 (FIG. 3A).
# The protein-liposome interaction was assayed as follows. Appropriate amounts of each lipid in chloroform were mixed and dried under nitrogen. The lipid mixture was resuspended in TBS buffer by vortexing. The liposomes were created by sonication. Blocked proteome chips were washed three to five times in PBS buffer, and the extra liquid on the glass surface was removed by tapping the slides vertically on a KIMWIPE™. 200 μl of liposome solution was added to the proteome chip and immediately covered by a hydrophobic plastic cover slip (GRACE BIO-LAB™, USA). After trapped air bubbles were removed, the chip was incubated in a humidity chamber at RT for one hour. To remove the cover slip, the chip was immersed into large volume of PBS buffer (50 ml), so that the slip would float away. […]
# [2] = tested on: six different liposomes; assay: Reverse membrane assay: proteins spotted on nitrocellulose probed with six liposomes; format: binding
# Method: B. A reverse assay was carried out to test for protein-lipid interactions. The proteins were prepared and spotted onto nitrocellulose filters in a dilution series and probed with the six different liposomes. As a control, the six liposomes were also added to the BSA-blocked membrane. After extensive washing, the bound liposomes were detected using an HRP-conjugated streptavidin and an ECL kit.
# C. Linear correlation between the binding signals and the amounts of Rim15p in a membrane assay. When liposome-binding signals of Rim15p from the membrane assay (FIG. 4B) were plotted against the concentration gradient of the spotted Rim15p, the binding signals of PI(4)P, PI(3,4)P2, PI(3)P, and PI(4,5)P2 correlated linearly with the amounts of Rim15p.
# Therefore, six proteins, i.e., Rim15p, Eno2p, Hxk1p, Sps1p, Yg1059wp, and Gcn2p, were further tested for phosphoinositol binding using two types of standard assays (Williamson, 2000, Nat. Struct Biol. 7(10):834-7). For Rim15p, Eno2p, and Hxk1p, PI(4,5)P2 liposomes were first adhered to a nitrocellulose membrane, which was then blocked by BSA; different amounts of the GST fusion proteins and a GST control were used to probe the membrane, and bound proteins were detected using anti-GST antibodies. […] We also carried out the reverse assay for four GST fusion proteins, Rim15p, Sps1p, Yg1059wp, and Gcn2p (Guerra et al., 2000, Biosci. Rep. 20: 41). Different amounts of these purified proteins were spotted onto nitrocellulose filters and probed with the six different liposomes (FIG. 5B). The bound liposomes were detected using a horseradish peroxidase (“HRP”)-conjugated streptavidin.
substance,measurement,setting,value
"RIM15: yeast protein kinase, regulator of glucose metabolism, GST-HisX6 fusion",PI(3)P,[1],52.50
same,liposome binding in reverse membrane assay,[2]; HRP-conjugated streptavidin,"bound strongest to PI(3)P and PI(4)P and PI(3,4)P2"
same,affinity of PI(4)P relative to control PC,"[2]; membrane assay, signal vs amount of protein",at least three-fold higher

# Source: patent US20050182242A1, “Global analysis of protein activities using proteome chips” (priority 2001, published 2005)
